Several values for one entry are separate records, joined by “and”; a condition that tells them apart may be missing. Identical values can stand only once.

B1: VapB11 (shorter form, VapB11^6-72), (6x-His)-VapB11 (domain or fragment)
chain: MSRTNIDIDDELAAEVMRRFGLTTKRAAVDLALRRLVGSPLSREFLLGLEGVGWEGDLDDLRSDRPD
notes: Homodimer by AUC; also called antitoxin VapB11
B2: VapC11 toxin (purified alone) (enzyme)
chain: ILIDTSAWVEYFRATGSIAAVEVRRLLSEEAARIAMCEPIAMEILSGALDDNTHTTLERLVNGLPSLNVDDAIDFRAAAGIYRAARRAGETVRSINDCLIAALAIRHGARIVHRDADFDVIARITNLQAASFR
notes: VapC11 toxin (PIN domain ribonuclease) of the VapBC11 toxin-antitoxin system, Mycobacterium tuberculosis; 134 amino acids as printed; also called wild-type protein

For data set [1], the target named is B2. Nature of the data set: SPR; Biacore 3000; VapC11 immobilised on a CM5 chip (up to 750 RU); five concentrations of VapB11 injected; 10 mM HEPES (pH 7.5), 150 mM NaCl, 25°C, 20 μl/min; 1:1 Langmuir model with drifting baseline. As to conditions: both partners purified. In general terms: SPR reads the build-up and loss of mass on a sensor chip optically.
Data set [2] deals with the molecule itself. Nature of the data set: […] (pH 8.0), 150 mM NaCl, […].
Data set [3] concerns the molecule itself. Nature of the data set: AUC.

B1: in data set [1], the Kd (commonly the equilibrium constant for the complex coming apart) was about 0.6 nM; the koff (in general, the first-order rate constant of dissociation) amounted to 0.000133 s⁻¹; the kon (in general, the second-order rate constant of association) came out at 1.15e+06 M⁻¹ s⁻¹. Moreover, the stoichiometry N (as a rule, the number of molecules, sites or subunits per partner or assembly) in data set [2] is 2.
Take B2: in data set [3], the “stoichiometry N” value was 2 and 4.

The record behind these values is paper PMC6265470, “Structural, functional and biological insights into the role of Mycobacterium tuberculosis VapBC11 toxin–antitoxin system: targeting a tRNase to tackle mycobacterial adaptation” (Nucleic Acids Research, 2018).
